# Test results from patent US7351689.
# Target: human IL-28 receptor on transfected 293 HEK cells (IL-28 receptor alpha subunit with endogenous CRF2-4) (human)
# Test: cell-based or functional assay
# human IL-28 receptor on transfected 293 HEK cells (IL-28 receptor alpha subunit with endogenous CRF2-4) (human), sequence (Q8IU57 21-520): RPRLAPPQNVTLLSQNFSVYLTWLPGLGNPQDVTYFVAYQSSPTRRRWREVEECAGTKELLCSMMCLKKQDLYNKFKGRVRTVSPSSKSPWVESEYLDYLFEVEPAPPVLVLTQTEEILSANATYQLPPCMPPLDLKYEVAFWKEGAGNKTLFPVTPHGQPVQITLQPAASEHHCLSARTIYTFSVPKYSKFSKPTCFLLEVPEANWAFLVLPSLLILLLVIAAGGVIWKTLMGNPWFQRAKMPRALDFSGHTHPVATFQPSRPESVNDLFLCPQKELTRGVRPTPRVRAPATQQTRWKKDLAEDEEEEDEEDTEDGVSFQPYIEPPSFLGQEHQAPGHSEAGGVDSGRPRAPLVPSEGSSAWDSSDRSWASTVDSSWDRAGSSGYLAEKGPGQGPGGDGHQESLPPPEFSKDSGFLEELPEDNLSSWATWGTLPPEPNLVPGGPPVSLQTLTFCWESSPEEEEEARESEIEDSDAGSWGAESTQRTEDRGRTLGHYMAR
Substance,"ISRE Signaling of Transfected 293 Cells Following Class II Cytokine Stimulation (Fold Induction), ISRE-Luc./IL-28R, HuIL10 100 ng/ml (fold induction)","ISRE Signaling of Transfected 293 Cells Following Class II Cytokine Stimulation (Fold Induction), ISRE-Luc./IL-28R, Zcyto10 125 ng/ml (fold induction)"
huIL10 (from UniProt P22301 19-178) (ligand),0.5,–
zcyto10 (from UniProt Q9NYY1 25-176) (ligand),–,1
